Twelve molecules from US20140287419A1, “Compositions Having Dicamba Decarboxylase Activity and Methods of Use” (priority 2013, published 2014) can be followed below.

The nature of data set [1]: 14C assay with IPTG-induced recombinant E. coli cells (14CO2 capture from [14C]-carboxyl-labeled dicamba). Particulars: for Enzymatic Detection level: dicamba decarboxylation activity of the protein of the given SEQ ID NO; for Dicamba Decarboxylase Activity: IPTG-induced recombinant E. coli cells, [14C]-carboxyl-labeled dicamba, 14CO2 capture.
The nature of data set [2]: Dicamba decarboxylation activity of computationally designed protein variants. Particulars: for Dicamba Decarboxylase Activity: native protein or designed variant versus parent; for Percent Activity Improvement Over Parent (%): parent SEQ ID NO:1 or SEQ ID NO:41 listed as 100.
Where [3] appears, read: Table 4, variants designed to introduce activity.
The mark [4] stands for this setting: Table 5, designed variants with improved activity.

B1: 121 (protein)
chain: MAIIDCHGHYTTTPKGVEDYRNAQKAAVAKDPSFKGEKGQVVVSDDEIRESIENNQLKMQRERGTDLTIFSPRWDAGGHHIGNEYTSQFWTEHQNDLIRRVCDLFPKNFAPVAQLPQSPGVDPAKSVPEIVRTVEQMGFIGINLNPDPSGGYWKDTSLADRAFYPIYEKMVEYDIPAMIHPRLACNACFHTGLSVGLGADTTGFQQLIMSDVFKDFPSLKIIIPHGGGAVPYHWGRFRGLMQDQGYAPLEESALKNIYFDTCVYHQRGIDLLLDIVPTQNILFASEMIGAVRGIDPETGHNFDDTKRYIDNNTALNAEEKAMIFEGNARRVFSRLKTD
modifications: Dicamba decarboxylase variant clone DC.12.014
In the case of B1, the “Enzymatic Detection level” value in data set [1] is “High”. Moreover, in data set [2] (setting [3]), the “Dicamba Decarboxylation activity” value is on record as “Yes”.

B2: 120 (protein)
chain: MAIIDCHGHYTTTPKGVETYRNAQKAAVAKDPSFKYEKGQVVVSDDEIRESIENNQLKMQRERGTDLTIFSPRSTAGGHHIGNEYTSQFWTEHQNDLIRRVCDLFPKNFAPVAQLPQSPGVDPAKSVPEIVRTVEQMGFIGINLNPDPSGGYWKDTSLADRAFYPIYEKMVEYDIPAMIHPRNACNDCFHTTGSHALGADTTGFQQLIMSDVFKDFPSLKIIIPHGGGAVPYHWGRFRGLMQDQGYAPLEESALKNIYFDTCVYHQRGIDLLLDIVPTQNILFASEMIGAVRGIDAETGHNFDDTKRYIDNNTALNAEEKAMIFEGNARRVFSRLKTD
modifications: Dicamba decarboxylase variant clone DC.12.002
For the molecule B2, in data set [1], the “Enzymatic Detection level” value is “High”. Moreover, the “Dicamba Decarboxylation activity” value in data set [2] (setting [3]) is given as “Yes”.

B3: 95 (protein, listed as Pseudomonas fluorescens)
chain: MAKKPRIDMHSHFFPRISEQEAAKFDANHAPWLQVSAKGDTGSIMMGKNNFRPVYQALWDPAFRIEEMDAQGVDVQVTCATPVMFGYTWEANKAAQWAERMNDFALEFAAHNPQRIKVLAQVPLQDLDLACKEASRAVAAGHLGIQIGNHLGDKDLDDATLEAFLTHCANEDIPILVHPWDMMGGQRMKKWMLPWLVAMPAETQLAILSLILSGAFERIPKSLKICFGHGGGSFAFLLGRVDNAWRHRDIVREDCPRPPSEYVDRFFVDSAVFNPGALELLVSVMGEDRVMLGSDYPFPLGEQKIGGLVLSSNLGESAKDKIISGNASKFFNINV
As for B3, in data set [1], the “Dicamba Decarboxylase Activity” value is recorded as “No” and the “Enzymatic Detection level” value is given as “No”. The “Dicamba Decarboxylation activity” value in data set [2] (setting [3]) was “No”.

B4: 117 (protein)
chain: MAKKPRIDMHSHFFPRISEQEAAKFDANHAPWLQVSAKGDTGSIMMGKNNFRPVYQALWDPAFRIEEMDAQGVDVQVTCATPVMFGYTWEANKAAQWAERMNDFALEFAAHNPQRIKVLAQVPLQDLDLACKEASRAVAAGHLGIQIGNHLGDKDLDDATLEAFLTHCANEDIPILVHPWDMMGGQRMKKWMLPVLVAAPAEVQLAILSLILSGAFERIPKSLKICFAGGGGSFAFLLGIVDLAWRHRDIVREDCPRPPSEYVDRFFVDSLVFNPGALELLVSVMGEDRVMLGSDYPFPTGEQKIGGLVLSSNLGESAKDKIISGNASKFFNINV
modifications: Dicamba decarboxylase variant clone DC.5.008
Consider B4, for which the “Enzymatic Detection level” value in data set [1] is “High”. The “Dicamba Decarboxylation activity” value in data set [2] (setting [3]) is reported as “Yes”.

B5: SEQ ID NO: 116 (protein)
chain: MAQGKVALEEHFAIPETLQDAAGFVPGDYWKELQHRLLDIQDRRVRLMDEHGIETMILSLNAPAVQAIADSTRANETARRANDFLAEQVAKQPTRFRGFAALPMQDPELAARELERCVKELGFVGALVNGFSQDNRSAVPLYYDMAQYWPFWETVQALDVPFYLHPRNPLPSDARIYDGHAWLLGPTWAFGQETAVHALRLMGSGLFDKYPALKIILGHMGEGLPYSMWRIDHRNAWIKTTPKYPAKRKIVDYFNENFYLTTSGNFRTQTLIDAILEIGADRILFSTDWPFENIDHAADWFENTSISEADRKKIGWGNAQNLFKLNR
modifications: Dicamba decarboxylase variant clone DC.30.007
As for B5, the “Dicamba Decarboxylase Activity” value in data set [2] is on record as “improved dicamba decarboxylase activity”.

B6: 118 (protein)
chain: MAKKPRIDMHSHFFPRISEQEAAKFDANHAPWLQVSAKGDTGSIMMGKNNFQPVYQALWDPAFRIEEMDAQGVDVQVTCATPVMFGYTWEANKAAQWAERMNDFALEFAAHNPQRIKVLAQVPLQDLDLACKEASRAVAAGHLGIQIGNHLGDKDLDDATLEAFLTHCANEDIPILVHGTDMMGGQRMKKWGLPWLVALAAEVQLAILSLILSGAFERIPKSLKICFSHGGGSFAFLLGLVDEAWRHVDIVREDCPRPPSEYVDRFFVDSVGNPGALELLVSVMGEDRVMLGSDYPHTTGEQKIGGLVLSSNLGESAKDKIISGNASKFFNINV
modifications: Dicamba decarboxylase variant clone DC.5.033
For B6, the “Enzymatic Detection level” value in data set [1] was “High”. Moreover, in data set [2] (setting [3]), the “Dicamba Decarboxylation activity” value was “Yes”.

B7: 119 (protein)
chain: MAKKPRIDMHSHFFPRISEQEAAKFDANHAPWLQVSAKGDTGSIMMGKNNFQPVYQALWDPAFRIEEMDAQGVDVQVTCATPVMFGYTWEANKAAQWAERMNDFALEFAAHNPQRIKVLAQVPLQDLDLACKEASRAVAAGHLGIQIGNHLGDKDLDDATLEAFLTHCANEDIPILVHGWDMMGGQRMKKWGLYWLVAHHAEVQLAILSLILSGAFERIPKSLKICFSHGGGSFAFTLGWVDEAWRHVDIVREDCPRPPSEYVDRFFVDSVGNPGALELLVSVMGEDRVMLGSDYPLTTGEQKIGGLVLSSNLGESAKDKIISGNASKFFNINV
modifications: Dicamba decarboxylase variant cloneDC.5.034
Turning to B7, the “Enzymatic Detection level” value in data set [1] was “High”. Also, the “Dicamba Decarboxylation activity” value in data set [2] (setting [3]) is listed as “Yes”.

B8: 41 (protein, listed as Polaromonas sp.)
chain: MANGKIALEEHFATEETLMDSAGFVPDKDWPELRSRLLDIQDRRVRLMDEHGIETMILSLNAPAVQAIADSTRANETARRANDFLAEQVAKQPTRFRGFAALPMQDPELAARELERCVKELGFVGALVNGFSQDNRSAVPLYYDMAQYWPFWETVQALDVPFYLHPRNPLPSDARIYDGHAWLLGPTWAFGQETAVHALRLMGSGLFDKYPALKIILGHMGEGLPYSMWRIDHRNAWIKTTPKYPAKRKIVDYFNENFYLTTSGNFRTQTLIDAILEIGADRILFSTDWPFENIDHAADWFENTSISEADRKKIGWGNAQNLFKLNR
Turning to B8, in data set [1], the “Dicamba Decarboxylase Activity” value is on record as “High” and the “Enzymatic Detection level” value is recorded as “High”. Also, the “Dicamba Decarboxylation activity” value in data set [2] (setting [4]) is reported as “Yes”. In data set [2], the “Percent Activity Improvement Over Parent (%)” value is given as 100%.

B9: SEQ ID NO:100: 4-Oxalomesaconate hydratase, Reinekea blandensis MED297 (protein, listed as Reinekea blandensis)
chain: MAIIDCHGHYTTTPKGVEDYRNAQKAAVAKDPSFKGEKGQVVVSDDEIRESIENNQLKMQRERGTDLTIFSPRASWMGHHIGNEYTSQFWTEHQNDLIRRVCDLFPKNFAPVAQLPQSPGVDPAKSVPEIVRTVEQMGFIGINLNPDPSGGYWKDTSLADRAFYPIYEKMVEYDIPAMIHVSAACNDCFHTTGSHYLGADTTGFQQLIMSDVFKDFPSLKIIIPHGGGAVPYHWGRFRGLMQDQGYAPLEESALKNIYFDTCVYHQRGIDLLLDIVPTQNILFASEMIGAVRGIDPETGHNFDDTKRYIDNNTALNAEEKAMIFEGNARRVFSRLKTD
Take B9: in data set [2], the “Dicamba Decarboxylase Activity” value is listed as “Neither of the native proteins have dicamba decarboxylase activity”.

B10: 122 (protein)
chain: MAIIDCHGHYTTTPKGVEDYRNAQKAAVAKDPSFKGEKGQVVVSDDEIRESIENNQLKMQRERGTDLTIFSPRSTAGGHHIGNEYTSQFWTEHQNDLIRRVCDLFPKNFAPVAQLPQSPGVDPAKSVPEIVRTVEQMGFIGINLNPDPSGGYWKDTSLADRAFYPIYEKMVEYDIPAMIHPRNACNDCFHTTGSHALGADTTGFQQLIMSDVFKDFPSLKIIIPHGGGAVPYHWGRFRGLMQDQGYAPLEESALKNIYFDTCVYHQRGIDLLLDIVPTQNILFASDMIGAVRGIDPETGHNFDDTKRYIDNNTALNAEEKAMIFEGNARRVFSRLKTD
modifications: Dicamba decarboxylase variant clone DC.12.103
For the molecule B10, the “Enzymatic Detection level” value in data set [1] is recorded as “High”. Moreover, in data set [2] (setting [3]), the “Dicamba Decarboxylation activity” value was “Yes”.

B11: 100 (protein, listed as Reinekea blandensis)
chain: MAIIDCHGHYTTTPKGVEDYRNAQKAAVAKDPSFKGEKGQVVVSDDEIRESIENNQLKMQRERGTDLTIFSPRASWMGHHIGNEYTSQFWTEHQNDLIRRVCDLFPKNFAPVAQLPQSPGVDPAKSVPEIVRTVEQMGFIGINLNPDPSGGYWKDTSLADRAFYPIYEKMVEYDIPAMIHVSAACNDCFHTTGSHYLGADTTGFQQLIMSDVFKDFPSLKIIIPHGGGAVPYHWGRFRGLMQDQGYAPLEESALKNIYFDTCVYHQRGIDLLLDIVPTQNILFASEMIGAVRGIDPETGHNFDDTKRYIDNNTALNAEEKAMIFEGNARRVFSRLKTD
In the case of B11, in data set [1], the “Dicamba Decarboxylase Activity” value is given as “No” and the “Enzymatic Detection level” value is recorded as “No”. In addition, the “Dicamba Decarboxylation activity” value in data set [2] (setting [3]) is “No”.

B12: 111 (protein)
chain: MAQGKVALEEHFAIPETLQDSMGFVPGDYWKELMHRLLDIQDTRLKLMDAHGIETMILSLNAPAVQAIPDRRKAIEIARRANDVLAEECAKRPDRFLAFAALPLQDPDAATEELQRCVNDLGFVGALVNGFSQEGDGQTPLYYDLPQYRPFWGEVEKLDVPFYLHPRNPLPQDSRIYDGHPWLLGPTWAFAQETAVHALRLMASGLFDEHPRLNIILGHMGEGLPYMMWRIDHRMAWIKLPPRYPAKRRFMDYFNENFHITTSGNFRTQTLIDAILEIGADRILFSTDWPFENIDHASDWFNATSIAEADRVKIGRTNARRLFKLDGA
modifications: Dicamba decarboxylase variant clone DC.4.112
B12: the “Enzymatic Detection level” value in data set [1] was “High”. For the same molecule, the “Dicamba Decarboxylation activity” value in data set [2] (setting [4]) was “Yes”. The “Percent Activity Improvement Over Parent (%)” value in data set [2] is 237%.
